These results are taken from patent US20210363215A1 (published 2021).

In the test the target is T1, MAGE-B2 (peptide MB2-231) peptide on HLA-A*02:01 (human).
T1 peptide: GVYDGEEHSV
The experiment in a line: multimer staining.

B1: MAGE-B2 TCR of SEQ ID NOs 3 and 5 (TCR, V domains shown)
Valpha: GNSVTQMEGPVTLSEEAFLTINCTYTATGYPSLFWYVQYPGEGLQLLLKATKADDKGSNKGFEATYRKETTSFHLEKGSVQVSDSAVYFCALTNDYKLSFGAGTTVTVRA
Vbeta: DAMVIQNPRYQVTQFGKPVTLSCSQTLNHNVMYWYQQKSSQAPKLLFHYYDKDFNNEADTPDNFQSRRPNTSFCFLDIRSPGLGDAAMYLCATSRGGRYNEQFFGPGTRLTVL
Take B1: the binding result is given as “recognises”.

B2: MAGE-B2-231 C5 TCR (TCR, V domains shown)
Valpha: KNQVEQSPQSLIILEGKNCTLQCNYTVSPFSNLRWYKQDTGRGPVSLTIMTFSENTKSNGRYTATLDADTKQSSLHITASQLSDSASYICVVISGFQKLVFGTGTRLLVSP
Vbeta: EAGVVQSPRYKIIEKKQPVAFWCNPISGHNTLYWYRQNLGQGPELLIRYENEEAVDDSQLPKDRFSAERLKGVDSTLKIQPAELGDSAVYLCASSFPKQGSYNEQFFGPGTRLTVL
Turning to B2, the binding result is reported as “recognises”.
